Experimental data from FireProtDB (doi:10.1016/j.jmb.2005.09.061).
Where “and” joins values, the source holds several entries; their conditions need not be identical. Identical values can stand only once.

Settings: Capra hircus, pH 7, Thermal, CD, sodium cacodylate 50 mM, NaCl 50 mM, reversible: Yes, whole UniProt chain shown

B1: Alpha-lactalbumin wild type, P00712 (protein)
chain: MMSFVSLLLVGILFHATQAEQLTKCEVFQKLKDLKDYGGVSLPEWVCTAFHTSGYDTQAIVQNNDSTEYGLFQINNKIWCKDDQNPHSRNICNISCDKFLDDDLTDDIVCAKKILDKVGINYWLAHKALCSEKLDQWLCEKL
- heat capacity change of unfolding (59 °C): 1.8 kcal/mol/K
- unfolding free energy (59 °C): 0 kcal/mol
- heat capacity change of unfolding: 1.8 kcal/mol/K
- unfolding enthalpy (van 't Hoff): 85.1 kcal/mol and 69.5 kcal/mol
